This is an account of results in the supplement of paper PMC10126150.

In this data set the test system is ATP. The data set can be described thus: switch fluorescence ratio, 500 uM ATP over buffer (Cy3 cluster intensity, sum of 5 cycles each) (fold (ratio)); higher = stronger signal-on switching upon ATP binding; sequences stand for … in TCGTCGGCAGCGTCAGATGTGTATAAGAGACAGTTTTTTTTTTTTTTTTTTTTTTTTT…TC. As to conditions: aptamer strand: ATP DNA aptamer (quencher-CACCTGGGGGAGTATTGCGGAGGAAGG + anchor), 100 nM annealed; ATP concentration: 500 uM. The method in brief:
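The fluorescence ratio divides summed target-cycle Cy3 intensity by summed buffer-cycle Cy3 intensity for each cluster and is averaged per switch-domain sequence. Cy3-labelled switching-strand clusters on a modified Illumina MiSeq flow-cell were annealed to 100 nM quencher-labelled ATP aptamer, then imaged in selection buffer and again after 15 min with 500 uM ATP at 22 °C. Five such cycles were run, with NaOH stripping and re-annealing between them, and clusters outside 100-1000 RFU were excluded.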

± gives the standard deviation of the averaged measurements.
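Also: ATP exposure 15 min at 22 °C before imaging.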

AAGGGGAATT: the switch fluorescence ratio was 1.01 ± 0.049.

Turning to GCTCAGGGGA, the switch fluorescence ratio worked out at 1.21 ± 0.097.

Turning to ATTCATTTAG, the switch fluorescence ratio stood at 0.996 ± 0.013.

Turning to TACGGGAGCC, the switch fluorescence ratio is 1.01 ± 0.025.

On to AGATTTTGTC, for which the switch fluorescence ratio stood at 0.972 ± 0.011.

As to AATATTTCGC, the switch fluorescence ratio was determined as 1.02 ± 0.018.

In the case of TCGGAGAGGA, the switch fluorescence ratio was found to be 0.986 ± 0.016.

On to CCTTATGGGG, for which the switch fluorescence ratio was determined as 1 ± 0.023.

Consider GCTTGTACGG, for which the switch fluorescence ratio came out at 1.01 ± 0.039.

GCAGCCGAAT: the switch fluorescence ratio came out at 1.04 ± 0.0093.

In the case of TTATACCTTA, the switch fluorescence ratio was determined as 1.065 ± 0.0043.

TGGAGAAATA: the switch fluorescence ratio was 1.01 ± 0.048.

Turning to GAGGAGCTTG, the switch fluorescence ratio was found to be 0.94 ± 0.096.

Regarding CGAGGATGT, the switch fluorescence ratio was 1.01 ± 0.011.

TTTCGAACAT: the switch fluorescence ratio turned out to be 1.03 ± 0.068.

As for TCCGGGTGTA, the switch fluorescence ratio was 1.14 ± 0.22.

For TACGGAAATG, the switch fluorescence ratio is 1.0398 ± 0.00093.

As to AGGGGAATCG, the switch fluorescence ratio was found to be 1.01 ± 0.016.

Take GGGTTTTCGA: the switch fluorescence ratio was 1.014 ± 0.0011.

Turning to AAAAGGGTTG, the switch fluorescence ratio was 0.99 ± 0.033.

For GGGGGGTTGG, the switch fluorescence ratio came out at 0.989 ± 0.031.

ATAGGTTCGT: the switch fluorescence ratio amounted to 0.99 ± 0.012.

As for ATACTATCTA, the switch fluorescence ratio was determined as 1.03 ± 0.017.

Regarding GTTACCTTTT, the switch fluorescence ratio came to 1.04 ± 0.023.

Turning to GTGTTTTAAA, the switch fluorescence ratio amounted to 1 ± 0.037.

As to ATTTATTTTT, the switch fluorescence ratio is 1.011 ± 0.002.

On to TTTTAAGCGG, for which the switch fluorescence ratio was 0.999 ± 0.015.

With GTGGCTTTGT, the switch fluorescence ratio worked out at 1.02 ± 0.029.

For the sequence TGAAGAGGGG, the switch fluorescence ratio was 0.994 ± 0.012.

As to TCTGTATCCG, the switch fluorescence ratio is 0.984 ± 0.015.

As to ATACGTGGTG, the switch fluorescence ratio was 1.09 ± 0.086.

Turning to GACTATCGGA, the switch fluorescence ratio was found to be 1.03 ± 0.013.

Regarding ACATTAACTA, the switch fluorescence ratio was found to be 1.09 ± 0.019.

Consider CCCAGTTTGG, for which the switch fluorescence ratio amounted to 1.01 ± 0.015.

ACTAGCTCTG: the switch fluorescence ratio worked out at 1 ± 0.023.

Take CTGCGTCCAT: the switch fluorescence ratio was 1.068 ± 0.01.

As to ACTACGGATT, the switch fluorescence ratio came out at 1.06 ± 0.026.

In the case of GCGTTGGGGC, the switch fluorescence ratio stood at 1 ± 0.054.

As for GACTTTACGG, the switch fluorescence ratio is 1.06 ± 0.048.

As for GGATTCGATT, the switch fluorescence ratio turned out to be 0.987 ± 0.03.

For the sequence CGTGCCGGGG, the switch fluorescence ratio turned out to be 0.968 ± 0.053.

In the case of GTTCCAAAGC, the switch fluorescence ratio worked out at 1.23 ± 0.019.

On to TATAGGTGCA, for which the switch fluorescence ratio amounted to 0.997 ± 0.024.

CAGGGCAATG: the switch fluorescence ratio came out at 1.2 ± 0.045.

Turning to TTATCGAATG, the switch fluorescence ratio amounted to 0.965 ± 0.065.

As to TAGGGGGTTG, the switch fluorescence ratio was 0.987 ± 0.027.

Consider TTTAGAGAGA, for which the switch fluorescence ratio came out at 0.975 ± 0.015.

On to ACTGGGTGAG, for which the switch fluorescence ratio turned out to be 1.02 ± 0.023.

GGTATAATAC: the switch fluorescence ratio was found to be 1.23 ± 0.041.

For TGTATCATGT, the switch fluorescence ratio turned out to be 0.99 ± 0.037.

As to GACGACGGGG, the switch fluorescence ratio stood at 1.05 ± 0.028.

Turning to TGGTTTTGT, the switch fluorescence ratio is 1.03 ± 0.066.

Consider CAAAGATAAT, for which the switch fluorescence ratio was 1.01 ± 0.039.

As for GTTTTACCTG, the switch fluorescence ratio came out at 1 ± 0.03.

For the sequence GAGTTCAGTA, the switch fluorescence ratio amounted to 0.975 ± 0.034.

Take CGTAGAATGT: the switch fluorescence ratio is 0.992 ± 0.022.

TAGTCGCTCC: the switch fluorescence ratio is 1.03 ± 0.034.

In the case of TTAGGTTTGC, the switch fluorescence ratio turned out to be 1 ± 0.032.

Take CCTTAAGACA: the switch fluorescence ratio came to 1.06 ± 0.015.

Consider GACCCAAGGC, for which the switch fluorescence ratio came out at 1.194 ± 0.01.

On to ACGAGCTGCT, for which the switch fluorescence ratio was determined as 1.032 ± 0.0038.

In the case of TCGGCATGGG, the switch fluorescence ratio is 1.11 ± 0.11.

On to GTTTTGGGTA, for which the switch fluorescence ratio is 1.04 ± 0.041.

As for AGATTTGGCA, the switch fluorescence ratio was 0.988 ± 0.03.

On to GCTGTGGCT, for which the switch fluorescence ratio came out at 0.972 ± 0.01.

Turning to GATCGGGTTG, the switch fluorescence ratio was 0.999 ± 0.026.

Consider CCGTGGGGGT, for which the switch fluorescence ratio stood at 1.054 ± 0.0029.
